The numbers were not newly measured in paper PMC5936680, which cites them from elsewhere.

The target of the data set is Hemoglobin αβ dimer (Homo sapiens) (UniProt P69905).

Take “Hemoglobin αβ dimer (from UniProt P69905)”: the dissociation constant Kd is 1 µM.
